# Measured values reported in paper PMC10115844, “The structural basis of tRNA recognition by arginyl-tRNA-protein transferase”.
# T1: scATE1 (arginyl-tRNA-protein transferase 1) (Saccharomyces cerevisiae) (UniProt P16639)
# T1 sequence: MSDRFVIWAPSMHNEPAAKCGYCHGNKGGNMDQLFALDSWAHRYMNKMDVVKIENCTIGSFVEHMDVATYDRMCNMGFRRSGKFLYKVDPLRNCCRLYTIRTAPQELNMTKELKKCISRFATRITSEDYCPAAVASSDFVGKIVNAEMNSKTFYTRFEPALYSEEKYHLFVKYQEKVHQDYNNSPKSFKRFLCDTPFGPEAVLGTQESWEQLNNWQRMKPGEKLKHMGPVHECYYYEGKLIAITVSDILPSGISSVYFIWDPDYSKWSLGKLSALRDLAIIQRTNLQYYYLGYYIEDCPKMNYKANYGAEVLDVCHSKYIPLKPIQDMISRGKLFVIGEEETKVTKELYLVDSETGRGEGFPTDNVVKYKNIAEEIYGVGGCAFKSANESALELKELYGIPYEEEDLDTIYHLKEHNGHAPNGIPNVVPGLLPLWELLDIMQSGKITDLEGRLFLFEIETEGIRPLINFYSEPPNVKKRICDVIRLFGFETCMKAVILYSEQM
# T2: scATE1 (arginyl-tRNA-protein transferase 1) (Saccharomyces cerevisiae, UniProt P16639 1-503)
# T2 sequence: T1 sequence
# B1: tRNAArg (argU) in the cryoEM complex (structured_RNA)
# RNA: GCGCCCUUAGCUCAGUUGGAUAGAGCAACGACCUUCUAAGUCGUGGGCCGCAGGUUCGAAUCCUGCAGGGCGCGCCA
# modifications: native modifications possible, not stated
# What was measured:
# [1] = molecular target: T1, scATE1 (arginyl-tRNA-protein transferase 1) (Saccharomyces cerevisiae); test: EMSA; details: EMSA: 20 mM Tris-HCl pH 7.5, 150 mM NaCl, 5 mM DTT, on ice (tRNAArg: 0.001% NP-40, 30 °C), MST: 10 mM Tris, 5 mM Na phosphate pH 7.0, 100 mM NaCl, 3 mM DTT …
# [2] = molecular target: T2, scATE1 (arginyl-tRNA-protein …); test: MST competition; displacement of FAM-DNA, 30 µM ATE1; EMSA: 20 mM Tris-HCl pH 7.5, 150 mM NaCl, 5 mM DTT, on ice (tRNAArg: 0.001% NP-40, 30 °C); MST: 10 mM Tris, 5 mM Na phosphate pH 7.0, 100 mM NaCl, 3 mM DTT, 0.08% Tween-20; fluorescence: 20 mM Tris pH 7.5, 125 mM NaCl, 3 mM DTT, 27 °C; details: protein: recombinant; tags: N-terminal GST (pGEX 6p-1), cleaved with PreScission; label: none (SYBR green stain); hairpin
# [3] = molecular target: T2, scATE1 (arginyl-tRNA-protein …); test: cryoEM structure; co-purified complex, 3.7 Å map; EMD-29638; EMSA: 20 mM Tris-HCl pH 7.5, 150 mM NaCl, 5 mM DTT, on ice (tRNAArg: 0.001% NP-40, 30 °C); MST: 10 mM Tris, 5 mM Na phosphate pH 7.0, 100 mM NaCl, 3 mM DTT, 0.08% Tween-20; fluorescence: 20 mM Tris pH 7.5, 125 mM NaCl, 3 mM DTT, 27 °C; details: protein: recombinant; tags: N-terminal GST (pGEX 6p-1), cleaved with PreScission; label: none; tRNA cloverleaf
molecule,measurement,setting,value
human tRNAArg A + T arms,binding signal (fold higher affinity from A + T arms),[1],4
"full-length tRNALys, in vitro transcribed",binding signal (fold weaker than tRNAArg),"[1]; 0.25 µM tRNA, affinity similar to acceptor arm alone",20
E. coli tRNALys acceptor arm,Kd,"[1]; smeary bands, possibly non-specific",4000 nM
human tRNAArg acceptor (A) arm,Kd,[1]; 2-fold stronger than E. coli acceptor arm,1500 nM
"human tRNAArg, in vitro transcribed",Kd,"[1]; 30 °C, 0.001% NP-40, 1 nM RNA, apparent Kd",155 nM
GCAUCCGCUACGAACGGAUGCACCA (structured_RNA) [E. coli tRNAArg acceptor arm miniRNA hairpin],Ki,[2],~3600 nM
B1,binding result,[3],binds
